This note sets out measurements from article PMC3158298.

The target of the assay is CC-Aβ_(1-40)E22Δ. As to the kind of experiment: split tetra-Cys FlAsH fluorescence.

CC-Aβ_(1-40)E22Δ (peptide) yielded a FlAsH fluorescence intensity relative to CC-Aβ (1-40) of 1.5 fold.
